Test results reported in patent publication US20110206701A1 (AbbVie / Abbott, published 2011).

Target: T1, CS1 (CD2-subset 1) (human, UniProt Q9NQ25 23-335)
T1 construct: whole, on cells; In the immunohistochemistry the protein stood in formalin-fixed, paraffin-embedded tissue sections; also called SLAMF7; CRACC
Assay: flow cytometry on normal blood NK and NK/T cells, directly conjugated antibody

B1: HuLuc63 (elotuzumab), humanized anti-CS1 antibody (antibody, V domains shown)
VH: EVQLVESGGGLVQPGGSLRLSCAASGFDFSRYWMSWVRQAPGKGLEWIGEINPDSSTINYAPSLKDKFIISRDNAKNSLYLQMNSLRAEDTAVYYCARPDGNYWYFDVWGQGTLVTVSS
VL: DIQMTQSPSSLSASVGDRVTITCKASQDVGIAVAWYQQKPGKVPKLLIYWASTRHTGVPDRFSGSGSGTDFTLTISSLQPEDVATYYCQQYSSYPYTFGQGTKVEIK
  binding result: binds
